From patent US20110281938, “APTAMERS TO TISSUE FACTOR PATHWAY INHIBITOR AND THEIR USE AS BLEEDING DISORDER THERAPEUTICS” (Baxter Healthcare S.A., published 2011)

Experiments:
[1] = biological target: T1, TFPI (tissue factor pathway inhibitor, full-length) (Homo sapiens, UniProt P10646 SEQ:1-276); test: competition; fails binding-competition criterion; settings: tags: American Diagnostica 4500PC/4900PC, E. coli expressed
Experimental: Each molecule was evaluated for binding to tissue factor pathway inhibitor (TFPI) in a binding-competition assay. For these experiments, 10 nM human TFPI (American Diagnostica, Stamford, Conn., catalog #4500PC) was incubated with trace amounts of radiolabeled ARC17480 and 5000 nM, 1666.67 nM, 555.56 nM, 185.19 nM, 61.73 nM, 20.58 nM, 6.86 nM, 2.29 nM, 0.76 nM or 0.25 nM of unlabeled competitor aptamer. ARC17480 was included as a competitor in every experiment as a control. For each molecule, the percentage of radiolabeled ARC17480 bound at each competitor aptamer concentration was used for analysis. The percentage of radiolabeled ARC17480 bound was plotted as a function of aptamer concentration and fit to the equation y=(max/(1+x/IC₅₀))+int, where y=the percentage of radiolabeled ARC17480 bound, x=the concentration of aptamer, max=the maximum radiolabeled ARC17480 bound, and int=the y-intercept, to generate an IC₅₀ value for binding-competition. The IC₅₀ of each aptamer was compared to the IC₅₀ of ARC17480 that was evaluated in the same experiment. A substitution was considered tolerated in the binding-competition assay if the IC₅₀ of that molecule was not more than 5-fold greater than that of ARC17480 evaluated in the same experiment. Tolerated substitutions are indicated in Table 38 as meeting the assay criteria (“yes”) or not meeting the assay criteria (“no”).

[2] = biological target: T1, TFPI (tissue factor pathway inhibitor, …); test: competition; dot-blot; settings: tags: American Diagnostica 4500PC/4900PC, E. coli expressed
Experimental: Each molecule was evaluated for binding to tissue factor pathway inhibitor (TFPI) in a binding-competition assay. For these experiments, 10 nM human TFPI (American Diagnostica, Stamford, Conn., catalog #4500PC) was incubated with trace amounts of radiolabeled ARC17480 and 5000 nM, 1666.67 nM, 555.56 nM, 185.19 nM, 61.73 nM, 20.58 nM, 6.86 nM, 2.29 nM, 0.76 nM or 0.25 nM of unlabeled competitor aptamer. ARC17480 was included as a competitor in every experiment as a control. For each molecule, the percentage of radiolabeled ARC17480 bound at each competitor aptamer concentration was used for analysis. The percentage of radiolabeled ARC17480 bound was plotted as a function of aptamer concentration and fit to the equation y=(max/(1+x/IC₅₀))+int, where y=the percentage of radiolabeled ARC17480 bound, x=the concentration of aptamer, max=the maximum radiolabeled ARC17480 bound, and int=the y-intercept, to generate an IC₅₀ value for binding-competition. The IC₅₀ of each aptamer was compared to the IC₅₀ of ARC17480 that was evaluated in the same experiment. A substitution was considered tolerated in the binding-competition assay if the IC₅₀ of that molecule was not more than 5-fold greater than that of ARC17480 evaluated in the same experiment. Tolerated substitutions are indicated in Table 37 as meeting the assay criteria (“yes”) or not meeting the assay criteria (“no”).

T1 sequence (P10646 29-304): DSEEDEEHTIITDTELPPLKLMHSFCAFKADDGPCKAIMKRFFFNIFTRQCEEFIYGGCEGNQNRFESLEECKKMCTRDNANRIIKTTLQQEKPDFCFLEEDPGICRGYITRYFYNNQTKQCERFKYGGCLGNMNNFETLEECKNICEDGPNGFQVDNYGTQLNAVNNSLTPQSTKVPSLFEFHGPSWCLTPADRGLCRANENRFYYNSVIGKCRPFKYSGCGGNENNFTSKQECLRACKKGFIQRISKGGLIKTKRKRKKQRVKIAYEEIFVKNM

| Binder | binding signal [1] | binding signal [2] [fold IC50 vs ARC17480] |
| --- | --- | --- |
| GGAAUAUACUUGCUCGUUAGGUGCGUAUAUA (mixed, 2'-OMe A/G/U, 2'-deoxy C, 3' idT) [ARC33127] | > 5 fold IC50 of ARC17480 | – |
| GGAAUAUACUUGGCUGUUAGGUGCGUAUAUA (mixed, 2'-OMe A/G/U, 2'-deoxy C, 3' idT) [ARC33130] | > 5 fold IC50 of ARC17480 | – |
| GGAAUAUACUUGGCCGUUAGGUGCGUAUAUA (mixed, 2'-OMe A/G/U, 2'-deoxy C, 3' idT) [ARC33129] | > 5 fold IC50 of ARC17480 | – |
| GGAAUAUACUUGGUCGUUAGGUGCGUAUAUA (mixed, 2'-OMe A/G/U, 2'-deoxy C, 3' idT) [ARC33128] | > 5 fold IC50 of ARC17480 | – |
| GGAATAUACUUGGCUCGUUAGGUGCGUAUAUA (XNA, 2'-OMe except dC9, dC14, dC16, dC25 and dT5; 3' idT) [ARC19452] | – | ≤ 5 |
| GGAAUAUACUUGGCUCGUUAGGUGCGUAUAUA (XNA, 2'-OMe except dC9, dC14, dC16, dC25 and dU19; 3' idT) [ARC33873] | – | ≤ 5 |
| GGAAUAUACUUGGCUCGUUAGGUGCGUAUAUA (XNA, 2'-OMe except dC9, dC14, dC16, dC25 and dG1; 3' idT) [ARC19448] | – | ≤ 5 |
| GGAAUAUACUUGGCUCGUUAGGUGCGTAUAUA (XNA, 2'-OMe except dC9, dC14, dC16, dC25 and dT27; 3' idT) [ARC19470] | – | ≤ 5 |
| GGAAUATACUUGGCUCGUUAGGUGCGUAUAUA (XNA, 2'-OMe except dC9, dC14, dC16, dC25 and dT7; 3' idT) [ARC19454] | – | ≤ 5 |
| GGAAUAUACUUGGCUCGUUAGGUGCGUAUAUA (XNA, 2'-OMe except dC9, dC14, dC16, dC25 and dA8; 3' idT) [ARC19455] | – | ≤ 5 |
| GGAAUAUACUUGGCUCGUUAGGUGCGUAUAUA (XNA, 2'-OMe except dC9, dC14, dC16, dC25 and dU5; 3' idT) [ARC33867] | – | ≤ 5 |
| GGAAUAUACUUGGCUCGUUAGGUGCGUAUAUA (XNA, 2'-OMe except dC9, dC14, dC16, dC25 and dU29; 3' idT) [ARC33876] | – | ≤ 5 |
| GGAAUAUACUUGGCUCGUUAGGUGCGUAUAUA (XNA, 2'-OMe except dC9, dC14, dC16, dC25 and dU31; 3' idT) [ARC33877] | – | ≤ 5 |
| GGAAUAUACUUGGCUCGUUAGGUGCGUATAUA (XNA, 2'-OMe except dC9, dC14, dC16, dC25 and dT29; 3' idT) [ARC19472] | – | ≤ 5 |
| GGAAUAUACUUGGCUCGUUAGGUGCGUAUAUA (XNA, 2'-OMe except dC9, dC16, dC25; 2'-F C14; 3' idT) [ARC19494] | – | ≤ 5 |
| GGAAUAUACUUGGCUCGUUAGGUGCGUAUAUA (XNA, 2'-OMe except dC9, dC14, dC16, dC25 and dG2; 3' idT) [ARC19449] | – | ≤ 5 |
| GGAAUAUACUUGGCUCGUUAGGUGCGUAUAUA (XNA, 2'-OMe except dC9, dC14, dC16, dC25 and dG12; 3' idT) [ARC19458] | – | ≤ 5 |
| GGAAUAUACUUGGCUCGUUAGGUGCGUAUAUA (XNA, 2'-OMe except dC9, dC14, dC16, dC25 and dG13; 3' idT) [ARC19459] | – | ≤ 5 |
| GGAAUAUACUUGGCUCGUUAGGUGCGUAUAUA (XNA, 2'-OMe except dC9, dC14, dC16, dC25 and dG22; 3' idT) [ARC19466] | – | ≤ 5 |
| GGAAUAUACUUGGCUCGUUAGGUGCGUAUATA (XNA, 2'-OMe except dC9, dC14, dC16, dC25 and dT31; 3' idT) [ARC19474] | – | ≤ 5 |
| GGAAUAUACUTGGCUCGUUAGGUGCGUAUAUA (XNA, 2'-OMe except dC9, dC14, dC16, dC25 and dT11; 3' idT) [ARC19457] | – | ≤ 5 |
| GGAAUAUACUUGGCUCGUUAGGUGCGUAUAUA (XNA, 2'-OMe except dC9, dC14, dC16, dC25 and dA6; 3' idT) [ARC19453] | – | ≤ 5 |
| GGAAUAUACUUGGCUCGUUAGGUGCGUAUAUA (XNA, 2'-OMe except dC9, dC14, dC16, dC25 and dA4; 3' idT) [ARC19451] | – | ≤ 5 |

| Binder | binding signal [1] | binding signal [2] [fold IC50 vs ARC17480] |
| --- | --- | --- |
| GGAAUAUACUUGGCTCGUUAGGUGCGUAUAUA (XNA, 2'-OMe except dC9, dC14, dC16, dC25 and dT15; 3' idT) [ARC19460] | – | ≤ 5 |
| GGAAUAUACUUGGCUCGUTAGGUGCGUAUAUA (XNA, 2'-OMe except dC9, dC14, dC16, dC25 and dT19; 3' idT) [ARC19463] | – | ≤ 5 |
| GGAAUAUACUUGGCUCGUUAGGUGCGUAUAUA (XNA, 2'-OMe except dC9, dC14, dC16, dC25 and dA28; 3' idT) [ARC19471] | – | ≤ 5 |
| GGAAUAUACUUGGCUCGUUAGGUGCGUAUAUA (XNA, 2'-OMe except dC9, dC14, dC16, dC25 and dA3; 3' idT) [ARC19450] | – | ≤ 5 |
| GGAAUAUACUUGGCUCGUUAGGUGCGUAUAUA (XNA, 2'-OMe except dC9, dC14, dC16, dC25 and dG24; 3' idT) [ARC19468] | – | ≤ 5 |
| GGAAUAUACUUGGCUCGUUAGGUGCGUAUAUA (XNA, 2'-OMe except dC9, dC14, dC16, dC25 and dA32; 3' idT) [ARC19475] | – | ≤ 5 |
| GGAAUAUACUUGGCUCGUUAGGUGCGUAUAUA (XNA, 2'-OMe except dC9, dC14, dC25; 2'-F C16; 3' idT) [ARC19495] | – | ≤ 5 |
| GGAAUAUACUUGGCUCGUUAGGUGCGUAUAUA (XNA, 2'-OMe except dC9, dC14, dC16, dC25 and dU7; 3' idT) [ARC33868] | – | ≤ 5 |
| GGAAUAUACUUGGCUCGUUAGGUGCGUAUAUA (XNA, 2'-OMe except dC9, dC14, dC16, dC25 and dG17; 3' idT) [ARC19461] | – | ≤ 5 |
| GGAAUAUACUUGGCUCGUUAGGUGCGUAUAUA (XNA, 2'-OMe except dC9, dC14, dC16, dC25 and dU27; 3' idT) [ARC33875] | – | ≤ 5 |
| GGAAUAUACUUGGCUCGUUAGGTGCGUAUAUA (XNA, 2'-OMe except dC9, dC14, dC16, dC25 and dT23; 3' idT) [ARC19467] | – | ≤ 5 |
| GGAAUAUACUUGGCUCGUUAGGUGCGUAUAUA (XNA, 2'-OMe except dC9, dC14, dC16, dC25 and dU23; 3' idT) [ARC33874] | – | ≤ 5 |
| GGAAUAUACUUGGCUCGUUAGGUGCGUAUAUA (XNA, 2'-OMe except dC9, dC14, dC16, dC25 and dA20; 3' idT) [ARC19464] | – | ≤ 5 |
| GGAAUAUACUUGGCUCGUUAGGUGCGUAUAUA (XNA, 2'-OMe except dC9, dC14, dC16, dC25 and dU15; 3' idT) [ARC33871] | – | ≤ 5 |
| GGAAUAUACUUGGCUCGUUAGGUGCGUAUAUA (XNA, 2'-OMe except dC9, dC14, dC16, dC25 and dU18; 3' idT) [ARC33872] | – | ≤ 5 |
| GGAAUAUACUUGGCUCGUUAGGUGCGUAUAUA (XNA, 2'-OMe except dC9, dC14, dC16, dC25 and dA30; 3' idT) [ARC19473] | – | ≤ 5 |
| GGAAUAUACUUGGCUCGUUAGGUGCGUAUAUA (XNA, 2'-OMe except dC9, dC14, dC16, dC25 and dG21; 3' idT) [ARC19465] | – | ≤ 5 |
| GGAAUAUACUUGGCUCGUUAGGUGCGUAUAUA (XNA, 2'-OMe except dC9, dC14, dC16; 2'-F C25; 3' idT) [ARC19496] | – | ≤ 5 |
| GGAAUAACUUGGCUCGUUAGGUGCGUAUAUA (mixed, 2'-OMe A/G/U, 2'-deoxy C, 3' idT) [ARC33123] | > 5 fold IC50 of ARC17480 | – |
| GGAAUAUACUGGCUCGUUAGGUGCGUAUAUA (mixed, 2'-OMe A/G/U, 2'-deoxy C, 3' idT) [ARC33126] | > 5 fold IC50 of ARC17480 | – |
| GGAAUAUCUUGGCUCGUUAGGUGCGUAUAUA (mixed, 2'-OMe A/G/U, 2'-deoxy C, 3' idT) [ARC33124] | > 5 fold IC50 of ARC17480 | – |
| GGAAUAUAUUGGCUCGUUAGGUGCGUAUAUA (mixed, 2'-OMe A/G/U, 2'-deoxy C, 3' idT) [ARC33125] | > 5 fold IC50 of ARC17480 | – |
